Here are results for 30 variants from the RNAGym collection of RNA variant scans (doi:10.1093/molbev/msab373).

First the molecules themselves.
B1: Azoarcus group I ribozyme (parent)
chain: GUGCCUUGCGCCGGGAAACCACGCAAGGGAUGGUGUCAAAUUCGGCGAAACCUAAGCGCCCGCCCGGGCGUAUGGCAACGCCGAGCCAAGCUUCGGCGCCUGCGCCGAUGAAGGUGUAGAGACUAGACGGCACCCACCUAAGGCAAACGCUAUGGUGAAGGCAUAGUCCAGGGAGUGGCGAAAGUCACACAAACCGG

The variants in the series derive from B1. In words: reverse-splicing fitness (ratio to wild type); higher = more active; in vitro selection; Mg2+ level not given. The gist of the method:
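An in vitro group I ribozyme library with randomized positions was T7-transcribed and gel-purified. In triplicate, 10 pmol RNA in EPPS pH 7.5 was reacted with 50 pmoles of a 30-nt RNA substrate for 1 h at 37 °C across several added MgCl2 levels (1–48 mM), then stopped with EDTA. Products were reverse transcribed from a substrate-complementary primer, PCR-amplified and sequenced (HiSeq 4000). Fitness is a variant's read proportion after selection over that before, normalised to wild type.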
GUGCCUUGCGCCGGGAAACCACGCAAGGGAUGGUGUCAAAUUCGGCGAAACCUAAGCGCCCGCCCGGGCGUAUGGCAACGCGGAGCCAAGCUUCGGCGCCUGCGCCGAUGCAGGUGUAGUGACUAGACGGCACCCACCUAAGGCCAACGAUAUGGUGAAGGCAUAGUCUAGGGAGGGGCGAAAGUCACACAAACCGG: the reverse-splicing fitness amounted to 0.00237. Take GUGCCUUGCGCCGGGAAACCACGCAAGGGAUGGUGUCAAAUUCGGCGAAACCUAAGCGCCCGCCCGGGCGUAUGGCAACGCGGAGCCAAGCUUCGGCGCCUGCGCCGAUGCAGGUGUAGUGACUAGACGGCACCCACCUAAGGCCAACGAUAUGGUGAAGGCAUAGUCUAGGGAGCGGCGAAAGUCACACAAACCGG: the reverse-splicing fitness was found to be 0.00331. As for GUGCCUUGCGCCGGGAAACCACGCAAGGGAUGGUGUCAAAUUCGGCGAAACCUAAGCGCCCGCCCGGGCGUAUGGCAACGCGGAGCCAAGCUUCGGCGCCUGCGCCGAUGCAGGUGUAGUGACUAGACGGCACCCACCUAAGGCCAACGAUAUGGUGAAGGCAUAGUCUAGGGAGAGGCGAAAGUCACACAAACCGG, the reverse-splicing fitness is 0.00291. For the variant GUGCCUUGCGCCGGGAAACCACGCAAGGGAUGGUGUCAAAUUCGGCGAAACCUAAGCGCCCGCCCGGGCGUAUGGCAACGCGGAGCCAAGCUUCGGCGCCUGCGCCGAUGCAGGUGUAGGGACUAGACGGCACCCACCUAAGGCAAACGCUAUGGUGAAGGCAUAGUCGAGGGAGGGGCGAAAGUCACACAAACCGG, the reverse-splicing fitness amounted to 0.0044. Consider GUGCCUUGCGCCGGGAAACCACGCAAGGGAUGGUGUCAAAUUCGGCGAAACCUAAGCGCCCGCCCGGGCGUAUGGCAACGCGGAGCCAAGCUUCGGCGCCUGCGCCGAUGCAGGUGUAGGGACUAGACGGCACCCACCUAAGGCAAACGCUAUGGUGAAGGCAUAGUCGAGGGAGCGGCGAAAGUCACACAAACCGG, for which the reverse-splicing fitness amounted to 0.0224.

As for GUGCCUUGCGCCGGGAAACCACGCAAGGGAUGGUGUCAAAUUCGGCGAAACCUAAGCGCCCGCCCGGGCGUAUGGCAACGCGGAGCCAAGCUUCGGCGCCUGCGCCGAUGCAGGUGUAGGGACUAGACGGCACCCACCUAAGGCAAACGCUAUGGUGAAGGCAUAGUCGAGGGAGAGGCGAAAGUCACACAAACCGG, the reverse-splicing fitness was 0.0184. Take GUGCCUUGCGCCGGGAAACCACGCAAGGGAUGGUGUCAAAUUCGGCGAAACCUAAGCGCCCGCCCGGGCGUAUGGCAACGCGGAGCCAAGCUUCGGCGCCUGCGCCGAUGCAGGUGUAGGGACUAGACGGCACCCACCUAAGGCAAACGCUAUGGUGAAGGCAUAGUCCAGGGAGGGGCGAAAGUCACACAAACCGG: the reverse-splicing fitness worked out at 0.00753. For the variant GUGCCUUGCGCCGGGAAACCACGCAAGGGAUGGUGUCAAAUUCGGCGAAACCUAAGCGCCCGCCCGGGCGUAUGGCAACGCGGAGCCAAGCUUCGGCGCCUGCGCCGAUGCAGGUGUAGGGACUAGACGGCACCCACCUAAGGCAAACGCUAUGGUGAAGGCAUAGUCCAGGGAGAGGCGAAAGUCACACAAACCGG, the reverse-splicing fitness came out at 0.0162.

On to GUGCCUUGCGCCGGGAAACCACGCAAGGGAUGGUGUCAAAUUCGGCGAAACCUAAGCGCCCGCCCGGGCGUAUGGCAACGCGGAGCCAAGCUUCGGCGCCUGCGCCGAUGCAGGUGUAGGGACUAGACGGCACCCACCUAAGGCAAACGCUAUGGUGAAGGCAUAGUCCAGGGAGCGGCGAAAGUCACACAAACCGG, for which the reverse-splicing fitness is 0.0226. In the case of GUGCCUUGCGCCGGGAAACCACGCAAGGGAUGGUGUCAAAUUCGGCGAAACCUAAGCGCCCGCCCGGGCGUAUGGCAACGCGGAGCCAAGCUUCGGCGCCUGCGCCGAUGCAGGUGUAGUGACUAGACGGCACCCACCUAAGGCCAACGAUAUGGUGAAGGCAUAGUCCAGGGAGUGGCGAAAGUCACACAAACCGG, the reverse-splicing fitness was found to be 0.00458. For GUGCCUUGCGCCGGGAAACCACGCAAGGGAUGGUGUCAAAUUCGGCGAAACCUAAGCGCCCGCCCGGGCGUAUGGCAACGCGGAGCCAAGCUUCGGCGCCUGCGCCGAUGCAGGUGUAGUGACUAGACGGCACCCACCUAAGGCCAACGAUAUGGUGAAGGCAUAGUCGAGGGAGCGGCGAAAGUCACACAAACCGG, the reverse-splicing fitness worked out at 0.00286.

Regarding GUGCCUUGCGCCGGGAAACCACGCAAGGGAUGGUGUCAAAUUCGGCGAAACCUAAGCGCCCGCCCGGGCGUAUGGCAACGCGGAGCCAAGCUUCGGCGCCUGCGCCGAUGCAGGUGUAGUGACUAGACGGCACCCACCUAAGGCCAACGAUAUGGUGAAGGCAUAGUCGAGGGAGAGGCGAAAGUCACACAAACCGG, the reverse-splicing fitness amounted to 0.00319. As for GUGCCUUGCGCCGGGAAACCACGCAAGGGAUGGUGUCAAAUUCGGCGAAACCUAAGCGCCCGCCCGGGCGUAUGGCAACGCGGAGCCAAGCUUCGGCGCCUGCGCCGAUGCAGGUGUAGUGACUAGACGGCACCCACCUAAGGCCAACGAUAUGGUGAAGGCAUAGUCGAGGGAGGGGCGAAAGUCACACAAACCGG, the reverse-splicing fitness was found to be 0.00223. With GUGCCUUGCGCCGGGAAACCACGCAAGGGAUGGUGUCAAAUUCGGCGAAACCUAAGCGCCCGCCCGGGCGUAUGGCAACGCGGAGCCAAGCUUCGGCGCCUGCGCCGAUGCAGGUGUAGGGACUAGACGGCACCCACCUAAGGCAAACGCUAUGGUGAAGGCAUAGUCAAGGGAGUGGCGAAAGUCACACAAACCGG, the reverse-splicing fitness stood at 0.0107.

As to GUGCCUUGCGCCGGGAAACCACGCAAGGGAUGGUGUCAAAUUCGGCGAAACCUAAGCGCCCGCCCGGGCGUAUGGCAACGCGGAGCCAAGCUUCGGCGCCUGCGCCGAUGCAGGUGUAGGGACUAGACGGCACCCACCUAAGGCAAACGCUAUGGUGAAGGCAUAGUCGAGGGAGUGGCGAAAGUCACACAAACCGG, the reverse-splicing fitness amounted to 0.0132.

Regarding GUGCCUUGCGCCGGGAAACCACGCAAGGGAUGGUGUCAAAUUCGGCGAAACCUAAGCGCCCGCCCGGGCGUAUGGCAACGCGGAGCCAAGCUUCGGCGCCUGCGCCGAUGCAGGUGUAGGGACUAGACGGCACCCACCUAAGGCAAACGCUAUGGUGAAGGCAUAGUCUAGGGAGUGGCGAAAGUCACACAAACCGG, the reverse-splicing fitness stood at 0.00963. Take GUGCCUUGCGCCGGGAAACCACGCAAGGGAUGGUGUCAAAUUCGGCGAAACCUAAGCGCCCGCCCGGGCGUAUGGCAACGCGGAGCCAAGCUUCGGCGCCUGCGCCGAUGCAGGUGUAGUGACUAGACGGCACCCACCUAAGGCCAACGAUAUGGUGAAGGCAUAGUCAAGGGAGUGGCGAAAGUCACACAAACCGG: the reverse-splicing fitness was found to be 0.00203. As to GUGCCUUGCGCCGGGAAACCACGCAAGGGAUGGUGUCAAAUUCGGCGAAACCUAAGCGCCCGCCCGGGCGUAUGGCAACGCGGAGCCAAGCUUCGGCGCCUGCGCCGAUGCAGGUGUAGUGACUAGACGGCACCCACCUAAGGCCAACGAUAUGGUGAAGGCAUAGUCGAGGGAGUGGCGAAAGUCACACAAACCGG, the reverse-splicing fitness was found to be 0.00326. On to GUGCCUUGCGCCGGGAAACCACGCAAGGGAUGGUGUCAAAUUCGGCGAAACCUAAGCGCCCGCCCGGGCGUAUGGCAACGCGGAGCCAAGCUUCGGCGCCUGCGCCGAUGCAGGUGUAGUGACUAGACGGCACCCACCUAAGGCCAACGAUAUGGUGAAGGCAUAGUCUAGGGAGUGGCGAAAGUCACACAAACCGG, for which the reverse-splicing fitness amounted to 0.00329. As for GUGCCUUGCGCCGGGAAACCACGCAAGGGAUGGUGUCAAAUUCGGCGAAACCUAAGCGCCCGCCCGGGCGUAUGGCAACGCGGAGCCAAGCUUCGGCGCCUGCGCCGAUGCAGGUGUAGGGACUAGACGGCACCCACCUAAGGCAAACGCUAUGGUGAAGGCAUAGUCAAGGGAGCGGCGAAAGUCACACAAACCGG, the figure is 0.0206; as for GUGCCUUGCGCCGGGAAACCACGCAAGGGAUGGUGUCAAAUUCGGCGAAACCUAAGCGCCCGCCCGGGCGUAUGGCAACGCGGAGCCAAGCUUCGGCGCCUGCGCCGAUGCAGGUGUAGGGACUAGACGGCACCCACCUAAGGCAAACGCUAUGGUGAAGGCAUAGUCAAGGGAGAGGCGAAAGUCACACAAACCGG, 0.016; as for GUGCCUUGCGCCGGGAAACCACGCAAGGGAUGGUGUCAAAUUCGGCGAAACCUAAGCGCCCGCCCGGGCGUAUGGCAACGCGGAGCCAAGCUUCGGCGCCUGCGCCGAUGCAGGUGUAGGGACUAGACGGCACCCACCUAAGGCAAACGCUAUGGUGAAGGCAUAGUCAAGGGAGGGGCGAAAGUCACACAAACCGG, 0.00442. As for GUGCCUUGCGCCGGGAAACCACGCAAGGGAUGGUGUCAAAUUCGGCGAAACCUAAGCGCCCGCCCGGGCGUAUGGCAACGCGGAGCCAAGCUUCGGCGCCUGCGCCGAUGCAGGUGUAGGGACUAGACGGCACCCACCUAAGGCAAACGCUAUGGUGAAGGCAUAGUCUAGGGAGCGGCGAAAGUCACACAAACCGG, the figure is 0.0141; as for GUGCCUUGCGCCGGGAAACCACGCAAGGGAUGGUGUCAAAUUCGGCGAAACCUAAGCGCCCGCCCGGGCGUAUGGCAACGCGGAGCCAAGCUUCGGCGCCUGCGCCGAUGCAGGUGUAGGGACUAGACGGCACCCACCUAAGGCAAACGCUAUGGUGAAGGCAUAGUCUAGGGAGAGGCGAAAGUCACACAAACCGG, 0.0181.

For GUGCCUUGCGCCGGGAAACCACGCAAGGGAUGGUGUCAAAUUCGGCGAAACCUAAGCGCCCGCCCGGGCGUAUGGCAACGCGGAGCCAAGCUUCGGCGCCUGCGCCGAUGCAGGUGUAGGGACUAGACGGCACCCACCUAAGGCAAACGCUAUGGUGAAGGCAUAGUCUAGGGAGGGGCGAAAGUCACACAAACCGG, the reverse-splicing fitness was found to be 0.00516.

For the variant GUGCCUUGCGCCGGGAAACCACGCAAGGGAUGGUGUCAAAUUCGGCGAAACCUAAGCGCCCGCCCGGGCGUAUGGCAACGCGGAGCCAAGCUUCGGCGCCUGCGCCGAUGCAGGUGUAGUGACUAGACGGCACCCACCUAAGGCCAACGAUAUGGUGAAGGCAUAGUCAAGGGAGCGGCGAAAGUCACACAAACCGG, the reverse-splicing fitness is 0.00225.

Regarding GUGCCUUGCGCCGGGAAACCACGCAAGGGAUGGUGUCAAAUUCGGCGAAACCUAAGCGCCCGCCCGGGCGUAUGGCAACGCGGAGCCAAGCUUCGGCGCCUGCGCCGAUGCAGGUGUAGUGACUAGACGGCACCCACCUAAGGCCAACGAUAUGGUGAAGGCAUAGUCAAGGGAGGGGCGAAAGUCACACAAACCGG, the reverse-splicing fitness was determined as 0.00281.

As for GUGCCUUGCGCCGGGAAACCACGCAAGGGAUGGUGUCAAAUUCGGCGAAACCUAAGCGCCCGCCCGGGCGUAUGGCAACGCGGAGCCAAGCUUCGGCGCCUGCGCCGAUGCAGGUGUAGUGACUAGACGGCACCCACCUAAGGCCAACGAUAUGGUGAAGGCAUAGUCAAGGGAGAGGCGAAAGUCACACAAACCGG, the reverse-splicing fitness was 0.00209.

Take GUGCCUUGCGCCGGGAAACCACGCAAGGGAUGGUGUCAAAUUCGGCGAAACCUAAGCGCCCGCCCGGGCGUAUGGCAACGCGGAGCCAAGCUUCGGCGCCUGCGCCGAUGCAGGUGUAGUGACUAGACGGCACCCACCUAAGGCCAACGCUAUGGUGAAGGCAUAGUCCAGGGAGUGGCGAAAGUCACACAAACCGG: the reverse-splicing fitness came to 0.0432.

GUGCCUUGCGCCGGGAAACCACGCAAGGGAUGGUGUCAAAUUCGGCGAAACCUAAGCGCCCGCCCGGGCGUAUGGCAACGCGGAGCCAAGCUUCGGCGCCUGCGCCGAUGCAGGUGUAGUGACUAGACGGCACCCACCUAAGGCAAACGCUAUGGUGAAGGCAUAGUCCAGGGAGUGGCGAAAGUCACACAAACCGG: the reverse-splicing fitness is 0.0509.
